B1: D G F V C V E W A R C P N C R (SEQ ID NO:9) (peptide)
peptide: DGFVCVEWARCPNCR
B2: D G Y V C V E W A R C P T C K (SEQ ID NO:7) (peptide)
peptide: DGYVCVEWARCPTCK
B3: D G Y V C V E W A R C P M C T (SEQ ID NO:8) (peptide)
peptide: DGYVCVEWARCPMCT

The binders below were run against extracellular domain (ECD) of the IL-5 receptor α chain (IL-5R α) (human) (UniProt Q01344) (assay: grade under 'Affinity'; IC50 values of 500 nm or less; competition with [125I] IL-5 for IL-5Rα ECD (Example 3), assay not given).

IC50, < 500 nM:
B1
B2
B3

Reference: patent publication US5683983
